Data as given in paper PMC6458997.

Experiments:
AimR (SPbeta) [1] = molecular target: T1, AimR (SPbeta) (Bacillus subtilis phage SPbeta (cloned …, UniProt O31927 1-386)); experiment: X-ray crystallography; 2.2 A; 200 mM MgCl2, pH 7.5; AimR:DNA 2:1; EMSA: 50 mM HEPES pH 7.5, 5 mM MgCl2, 75 mM NaCl, 0.5 mM EDTA; 0.4 uM DNA, 4 uM AimR; 10 min at room temperature; 8% PAGE in TBE at 4 C or agarose in TAE at room temperature; settings: protein: recombinant; tags: N-terminal 6xHis-TEV, cleaved; chain copies: 2
T1 sequence: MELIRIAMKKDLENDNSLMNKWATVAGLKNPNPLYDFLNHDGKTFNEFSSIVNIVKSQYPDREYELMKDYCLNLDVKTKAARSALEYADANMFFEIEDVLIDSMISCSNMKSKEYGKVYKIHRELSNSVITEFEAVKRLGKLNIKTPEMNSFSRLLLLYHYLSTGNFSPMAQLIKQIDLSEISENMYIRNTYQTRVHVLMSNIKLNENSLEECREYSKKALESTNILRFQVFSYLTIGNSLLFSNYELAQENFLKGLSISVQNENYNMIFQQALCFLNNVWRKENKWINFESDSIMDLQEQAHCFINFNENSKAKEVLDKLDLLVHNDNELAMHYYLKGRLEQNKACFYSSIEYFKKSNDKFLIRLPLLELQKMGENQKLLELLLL

AimR (SPbeta) [2] = molecular target: T1, AimR (SPbeta); experiment: EMSA; apo; EMSA: 50 mM HEPES pH 7.5, 5 mM MgCl2, 75 mM NaCl, 0.5 mM EDTA; 0.4 uM DNA, 4 uM AimR; 10 min at room temperature; 8% PAGE in TBE at 4 C or agarose in TAE at room temperature; settings: protein: recombinant; tags: N-terminal 6xHis-TEV, cleaved; chain copies: 2
AimR (phi3T) = molecular target: T2, AimR (phi3T) (Bacillus phage phi3T, UniProt P0DOE3 1-378); experiment: EMSA; EMSA: 50 mM HEPES pH 7.5, 5 mM MgCl2, 75 mM NaCl, 0.5 mM EDTA; 0.4 uM DNA, 4 uM AimR; 10 min at room temperature; 8% PAGE in TBE at 4 C or agarose in TAE at room temperature; settings: protein: recombinant; tags: N-terminal 6xHis; same purification protocol as SPbeta AimR
T2 sequence: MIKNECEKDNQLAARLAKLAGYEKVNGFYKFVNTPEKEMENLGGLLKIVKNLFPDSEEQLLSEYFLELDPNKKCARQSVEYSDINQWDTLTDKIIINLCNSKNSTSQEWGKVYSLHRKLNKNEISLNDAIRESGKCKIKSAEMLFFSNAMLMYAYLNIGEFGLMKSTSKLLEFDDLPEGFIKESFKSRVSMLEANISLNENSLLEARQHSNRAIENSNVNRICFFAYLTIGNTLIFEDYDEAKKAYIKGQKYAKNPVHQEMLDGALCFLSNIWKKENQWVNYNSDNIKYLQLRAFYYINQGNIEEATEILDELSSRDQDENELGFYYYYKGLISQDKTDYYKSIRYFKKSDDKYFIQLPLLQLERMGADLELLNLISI

B1: crystal operator 43 bp (dsDNA)
DNA 1: TTGATCACTAGATGTTATTAAAACCTAATATTTAAGTGATGGC
DNA 2: GCCATCACTTAAATATTAGGTTTTAATAACATCTAGTGATCAA
Question: Does B1 bind (AimR (SPbeta) [1])?
Answer: binds

B2: SPbeta operator WT 45 bp (dsDNA)
DNA 1: GTTGATCACTAGATGTTATTAAAACCTAATATTTAAGTGATGGCC
DNA 2: GGCCATCACTTAAATATTAGGTTTTAATAACATCTAGTGATCAAC
Question: Does B2 bind (AimR (SPbeta) [2])?
Answer: binds

B3: phi3T operator 37 bp (dsDNA)
DNA 1: ATGTTCCAGAAATTCAAAAATCAAAAAATAAGAACAT
DNA 2: ATGTTCTTATTTTTTGATTTTTGAATTTCTGGAACAT
Question: Does B3 bind (AimR (phi3T))?
Answer: binds
